Here are results for 1 substance from publication PMC7319358.

This test concerns the target Cy5UbPRG fluorescent activity-based probe (UniProt P0CG48).

recombinant DUB2 (enzyme) showed a percent of DUB2 reacted with the probe of 85%.
